Laboratory results reported in the domain aggregation screens of Martell et al. (2025).

test: soluble fraction after stress (log2 fold change); higher = more stays soluble; pooled small domains, quantitative proteomics; conditions: stress: 50 degC
Summary of the method: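 Each library was heated to 50°C as a stress step. The libraries, made up of small protein domains, were pooled and analysed at high throughput by quantitative proteomics. The reported value is the base-two logarithm of the fold change in each protein's soluble amount after stress, taken as a measure of aggregation propensity. The higher the value, the more protein stays in solution.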

Sequence | soluble fraction (log2)
HMDDIHTFVYETETPFDPQKLDRYIGSLTAVYGQDMLRYKGILYFAGVDRRVVFQGVHMLAV | -0.0916
HMDISAFDTEFIISKFGGIRPMAQKLGVPVSTVQGWKQRQTIPQNRMGDILEAAKNYNLELTP | 0.0856
HMYSYNKEEVGKRIKSIRQQKGLTQESFGELFGASKGNVATWEKGISLPNASRLREIADLVSITVEELLYG | -0.346
HMNVDSLIGKKARVLEDIDNLNAKGQVSIDGMEWTARSEDGSEIKKDALVEVVAIEGVKAIVKQ | 0.0709
HMTMKQVFIETDANVNQKIMLNEKEAHHLFDVLRTSDKETIRVVTNTSQVFLARVQQKPYIYLFDKMTVE | -1.41
HMNGTEAIRRYIDQFASKHATTPRMLKLNERKQLIQELKNNGLLEIKKAVETVAQHLGISRASAYLYVKE | -0.303
HMIINKFERRKEIQIQFNNQERIKFKDFFLNLSKENIIVSFLILLELVRESLIDFSGTNENDIEFFIK | -2.3
HMYNKKAYVNTNSDFLNVRSEASTESSVVDKLARGTEVNIVGNIQNGFYPIVLNEKNAWVSSDWISFEKPT | 0.227
HMRSIMAVSNYRHKKILEMVYQRKSVSADELAAEFGVSKITIRRDLDTLAMDKLLERTRGGAISISD | -2.67
HMDPNAITSAQVTKLQVLANEKGFAERQARLTMWAEVIGRNVGTANELTKAEAHKLIEHMDALPV | -0.488
HMTETIPVSERLFRYLFEEKGKRVQKIQQTSHARVRMERSPYSVVVSGTKDAVEAAMESLKATEKELLEA | 0.15
HMNVRAYKVSKESELTVEEKLEAVRGYGVADLLYVIREFEENPGKYEPEVIKLIVQQLTDKGIM | 0.199
HMAAYRLIPLGNSNKDFETYQEAIQYMRDKLDESSKAFEEGKQNWVYSGRVYGVPWSDGRTTFTVDLVPKV | 0.164
HMNENFPYRLKEMVVVQSRTWPGINKPGGVGQVMKINPEAGTVNVKYVLGGSEKNIELKYVTSNDLNSK | -0.536
HMEEFDLNAYITKINSAATLNALKQAYAEANSAALSVKDKDAQRKIIVEKDKRKAELIQETAG | 0.31
HMGMAQELMESRLTAVFTSGKDQLAVLQRKDGSTLKLGADSKPWRIESFDGRKAVFVSADQQRVERLL | -0.209
HMKSLPQKLLAYLESQGLTRDEAGEFVKQGLKITSNDVDQIQLLLANTEVIDIKLQEFIAQK | 0.217
HMTKASEELYFRLKEELGTGVIVEHKKYGEGVVTQLDDRLVHIMFQDDTLRMMDLKILANAGLLKVK | 0.189
HMSSLTQREYEIAELVADGLSNKAIAAELSISHTTAARHVANIMNKLGFNSRSQIAAWVADRAQG | 0.11
HMNASTVTLENFEGAKYDDVYGKYDYQFSVTYEQTDKYESGVIISQKPEAGTKIIKGSQVSLVVAT | 0.0657
HMGFSKGKRDLIRMIKLAIRELADDNGRAQIEDVITRLVQEGHSRDEIRLQIDMFLRQGEAMEPKQGIIKL | 0.325
HMLDIPEVGQAVQVRGRLGTVFSVAPYDGREGRLHLVTVDYLDDARPPENDEILWEIESGARILG | -0.523
HMLPLHFIEIVSLKKIDTLTKRKELINYAFSKNEKTYIYKLAFKKKSELDNLYKEINLFNEIINIDIRHS | -0.615
HMEDKKQVLYELITDKSYRPLRFKELAVLLMVPKALRGELKQTLDELIKEGKITVDSSSRYRAA | 0.133
HMYRYGETPMVVVPDLIGRTVSDIYEEMNADFRLEKFGNGNTVISQAPKPGERVEQGSVIRVYLSGQDQ | 0.157

Sequence | soluble fraction (log2)
HMQPSQTLSATVEFPDRLDRFLALAFPEVSRARFQRLIAEGHVSVEGVPATEIRHKLKAGQRVEAVIPPA | 0.0663
HMKFNLWLSEKLKKLGLTQRKLAEQAGVSPATVSRWLSGEFEPDLTNLRKINQVLGVPERELFLQLGL | 0.154
HMTSESWAEKSRSLAAAGLIVMGRDAQLKIEGLTNLDPLIEAATASSTRLLTGQTIDELLTIVP | -0.265
HMESSNLESQLKKGIVPNLNGLSAKDALFLLENSGFNVKLYGMGSVKKQSLEAGKKYNKGDKITLIL | 0.112
HMGLLVPELTAEENVSLAAMIAGVPRQQARSISADLLNRLGLGQMLDRRMGEMSGGQAQRVAIAPIYGKF | -0.274
HMSVERIEPPLPLIDTLLALRDALERPLSREENAFLSRRFAGGATRAQIDALAAQFRGAAAAESKV | 0.104
HMDDPWHNLANAIVAVAADDYRSALRNEDEGLLKSLELFFHSEWYRILTDVDADRLLGMLRRERS | -1.62
HMEVGDTYLGKVTRVSSFGAFIEVLPGKEGLMRQNDAGEGGMPEVGDEVMVRVMEVDHLGRINLSGKLDD | -0.0268
HMKGQNRSEITAGARVKVVQKQDQRTGALTEGIVRDILTRSPHHPHGIKVRLESGIVGRVKDVL | 0.0363
HMYRPLYQQVYDFLVKQIAAGEWGPGESLPSEQALAGRLNVSQGTVRKALDALAADSLIDRRQGKGTYVAE | -0.0221
HMGQDGFIGLEAAKKLVLQKLGLTSAEFIKAELDAEDRKYELELIVDGIEYDFDIDAYSGAFLKQEQETV | -0.215
HMERPEVVAYRLAYASAESLRPALGLVASPSDLEIDERTNTLIVRAVPSVQERVAELVASLDI | -0.237
HMVIDETVLIDLFERLAEDDRPQRVAFRYILALVLLRKRTLQLIGREDEDDGEIWLLRFKGTDGEPIRV | -0.297
HMTGKTTLEYLNPLLERGIPVWDYLAKASGKAKEEVQEMVSKGLVPGAEAAKAIADYMGAEFAGSMA | 0.0316
HMTTYSVDLGDIRAVADSDGKLVELTLHAAVTTHYSHSELADRLNLAFTALREEAQADYETRY | 0.127
HMEELPIIVAQRFLNIFRQLHIFSDERREAFNKMLLELPPEVKSIFQSLPGGTPLQEYMEDLEQKSK | -0.055
HMLMKPQKTRDVLRYLKSIGWVRLRGGQGSHEIWGLPDGSIRAVIPAGHREISAGVLMQLKRAGVDVPTQW | -0.557
HMKTMEQSYIGRKIILDENVEDSALIKFEGIYWTFKSVSGPLKKGTEVEIIGIEGNKILIKNK | -0.198
HMEHLTATERHLVAYLEAHLGQVPSLSITKLSQEANVSTASIVRTMKKLGYDGFTAFKHAIKQQLR | -1.77
HMSSLKKISIDELSPGMYVHSIVEQKGSVKIKSQGKVLKQAVVDALRKRGVKTLLIDLSKQFNPETGEP | -0.0124
HMLKSGSAVAQARDVILEKGVPVHINEILDALGKGDTREAKASLTSSLAAYVRRGEIFTRPAPNTFGLVEL | -0.372
HMGFYDLFINLADKVGSLADVTQILAEARINLVNVHILEIREEIDGIAQLTFSSEKDRQKALELLKTKYK | -1.33
HMGETISVPAVRSLAYDRAVDMLTAEGLKGIVADSVYDNRTQPGTVIEQNPKAGTIVKEGREVYLTINA | 0.157
HMTDFDWSLFTQQLKRFNLFLSYDDREKLQTFQTLYGLNELDLAEYVAKASAGEKNGLNFNYLRQLINKEK | -0.465
HMSYGKVQFVIDAKDAVLSIDGKETDYEKPVKLTYGSHTITVYSSDYDTWKRNLYVNSEKSTVVINLA | -2.72

Sequence | soluble fraction (log2)
HMQETKDEGAQVLLNKINALVAAVQGQIITPEEAAIKLATDGDLDLDVDARVAAIEEFNKKLSEAQNN | 0.0497
HMLPDYLIELKKKADSGDAVSQNDIGNIYLYGLPRVNIYPDEKNIGIGIDYLYKAAWQDQVNAMTTI | -0.0456
HMSGSIIQQAENLERQFGDTREAILGTLSDPKMSEEILETLMERYNKQHGTNWDKNTWAEEWAKANK | 0.23
HMSREEFLTELRKALQGRVSQQTVNDNLRYYEEYILTESHKGKTEAEVIAELGNPRLLAKSIIDAENAT | 0.107
HMDLIFQKGDLVFSTEHNQRGIFYEYLEQGQAKISIEKQFFVVAARRLQLLTKREVLYPAGYDLDQLFV | -0.0465
HMEHTPHGVALLRTLMDQYGLKAADLANELGSKSNVSNILNGRRALTVSHIKMLAERFNLPADAFI | -0.914
HMDIYLTAFKTTSNQVTLNGIARSDLIISEFMRDIRDAKLFGEPVLQVIQNKNLNNVQARVFELVVPL | -0.263
HMIESFQNGLVEHDQFTRPNPWVTPNFSKIEVPSILLSGKHADIDLWKHQNSIENTKKNRPDLFKNYLKKN | 0.211
HMVAQEVPYSTFVMRLDRNEVDAVKIIDGNEIEGTFKSPNGDLVQFKTLIPYQDTELMPLLKQKGVRISGS | 0.386
HMANILKHKNKDGVITSYTIRVYHGYDEAGKRLRPYTMNYKPAPNMTARQIEKELNRQAVQFEEQIKNGYA | -0.699
HMKRANGTGSVFKLNGKRRNPWVARVTQGFDDKGRQKYVNLGYYKTKREAENELLSYNSNPYDAN | 0.214
HMFAATGVVNAPSGLVLRETASKGGNPLATVPDKAQVEIVEEDGEWYKVKVNEQTGYLFAEFVNKTE | 0.0336
HMPIRMLQVQKTNTGYLNVRDTPSVSGALIGKVFPGDMLSSTEERDGWFLVAVPQGGTGWVSGDYVKTTS | -0.0387
HMALWFDEWKKYQDTIASADLLPDKAERDALIAQAEDRFNYWMDIYPRSASLNHSFDDLYEEHRRKIE | -0.75
HMAEPIAAGKYTVSTSGSVLNMRVSPDADSQVLEKIPNGTIVEVTKSVLGWAYVTYNSAQGWVSSAYLV | 0.15
HMYELSDTEWKIIEQVGLGASNKEIAASLHFSEGTIRNYLSVILDKLSLRDRTQLAILYVKMN | -0.058
HMDSYSILGIEKESSMEDIEKAYIDKISKIKKEVKNEKNAAAFEAVLTKAYNDILSQKENISEEQELAE | 0.011
HMNNQIFGLKFRQLRKQQHITLAKAAAGITSRQSLGNWETGKGELAFEKVLLLLKKINVQPIDFLESSIS | -3.67
HMGKPSSEELEALGRRTLEENVDVVEEILGGRDPKGKKIKYLEGLMMRALRGQETPEAVRRTLEELIFK | 0.0847
HMGASALTEREREVLRLLEGGGSDKRIARQLAISEHGVRYHLKSIYKKLGVHDRVSAIAAGRRLAS | -0.21
HMPLITAIELDSISARSFQFNTQSGSTYFIEGSTDLKSWDVIAEVKATDSTTTYEDHRKIYHEAYFYRVRL | -2.01
HMLTAPMPGIVTEILVKEGQRVRSGQPLMILEAMKMEHQVTAPKSGQIEKIYFSEGEKVDMGSDLLSIS | 0.181
HMTPVEVNARGVHVDFSKGGILLEDVVRHLILEALRASEWKRGPAAQLLGISKETLRYRMEKYRLYPP | -2.26
HMEAMITEVKRINYGLISDISKSLDPFKSEGGHIIVDKRTNTFILTDLRANIEKMLWSIEIMD | -0.111
HMRVQELARDLGVEADTLIALLRQMGIPVTGARSAINDAQQAKVLAKIERERRAGHSDPAKAIQAVLEEAS | 0.121
